Laboratory results: US20230047413A1 (Janssen / Centocor, published 2023)
Substitutions are numbered along the chain they refer to. Values belong to the binder of their own block, whether it stands above or below them.

Legend:
Peptide-2 [1] = target: T1, Peptide-2 (human, phosphothreonine 212, phosphothreonine 217 (tau 2N4R numbering); short chain biotin (SCBiot) and dPEG4 at the N-terminus; amide at the C-terminus); test: SPR ProteOn, mAb captured, peptide as analyte; range of n=2; upper end of n=2 range
T1 construct: also called pT212/pT217-tau peptide (Peptide-2)
Description: (§1) A subset of HFA-PT3 monoclonal antibody variants, selected based on biophysical characterization and ELISA binding to PHF, were analyzed by Surface Plasmon Resonance (SPR) with a ProteOn XPR36 for binding to the following phosphopeptides: pT212/pT217-tau peptide (Peptide-2, SEQ ID NO: 48) and pT212-tau peptide (Peptide-8, SEQ ID NO: 54). All experiments were performed at 25° C. using PBST, pH 7.4, (Bio-Rad Cat#176-2720) as both running buffer and sample dilution buffer.
(§2) Monoclonal antibody/Peptide binding. […] Anti-human IgG was amine-coupled to the chip surface using EDC/NHS, then washed with ethanolamine. Antibodies were diluted to 2 μg/mL in PBST and injected on the surface for 5 min at 30 μL/min to achieve a maximum density of 900-1000 RU. Peptides were injected as analytes at 60 μL/min for 3 min, followed by 5 min dissociation. Peptide-2 was diluted in PBST to generate a three-fold concentration series (0-30 nM) and measured in duplicate. Single measurements of monoclonal antibody binding to Peptide-8 were recorded over the concentration range 0-100 nM.
(§3) Data were double referenced by subtraction of the interspot response, and the curves generated by the buffer only injection. The chip surface was regenerated with 0.85% phosphoric acid, followed by PBST injection before the next antibody titration injection. Data processing and analysis were performed using instrument software. The data were fit using a simple Langmuir 1:1 binding model.

Peptide-8 [2] = target: T2, Peptide-8 (human, phosphothreonine 212 (tau 2N4R numbering); SCBiot and dPEG4 at the N-terminus; amide at the C-terminus); test: SPR ProteOn, mAb captured by anti-human Fc, peptide as analyte
T2 construct: also called pT212-tau peptide (Peptide-8)
Description: as §1, §2, §3

[3] = target: T3, tau phospho-peptide of the direct ELISA of Example 11; test: direct ELISA, peptide coated
T3 construct: also called pT217 peptide; pT212/pT217 peptide
Description: (§4) Binding to tau phospho-peptide was analysed by ELISA where peptide (10 ng/mL) was directly coated to the plate overnight. […] After incubation with antibodies, plates were washed and 50 μL per well of HRPO labelled anti-Fab antibody (Jackson Immunoresearch laboratories) (diluted 1:10000 in blocking buffer). After another washing step detection was performed with “One step” TMB (Thermo Scientific) according to the manufacturers' instructions. Plates were analysed in EnVision® 2102 Multilabel Reader (Perkin Elmer, Waltham, Mass., USA). Binding curves were generated using GraphPad Prism7.0 software.

[4] = target: T4, PHF-tau (paired helical filament tau isolated from Alzheimer's disease brain) (human, UniProt P10636-8 2-441, limits assumed, hyper-phosphorylated, aggregated; sites not listed for the preparation); test: SPR ProteOn, PHF-tau capture-coupled via HT7, bivalent model
T4 construct: also called enriched PHF-tau; ePHF-tau
Description: Affinity matured monoclonal antibodies were tested for binding to PHF-tau isolated from Alzheimer's disease brain.
A GLC sensor chip was covalently immobilized with a mouse anti-tau antibody, HT7 (ThermoFisher, catalog# MN1000) using the vendor recommended protocol for amine-coupling chemistry (˜5000 response units, RU). The coupling buffer was 10 mM, pH 4.5 sodium acetate. PHF-tau was prepared by 2-times centrifugation at 5000×g in 5° C. for 10 min. […] After capture-coupling, the surface was activated and deactivated to generate a homogenous PHF-tau surface for antibody binding studies. The anti-tau antibodies and their Fabs (prepared in running buffer, 0.024-75 nM at 5-fold dilutions) were injected at 50 μL/min over the PHF-tau surface to measure binding. The association and dissociation profiles were monitored for 4 minutes and 2 hours, respectively. After dissociation, the sensor chip was regenerated using multiple injections of 10 mM Glycine pH 2.0 and the running buffer. A reference surface (without any PHF-tau) was used to monitor non-specific binding of the injected mAbs or Fabs. HT7 antibody was used as a positive control. The binding sensorgrams for mAbs were fit using a bivalent binding model where the apparent affinity or avidity-driven binding (KD) was reported as the ratio of off-rate and on-rate (koff/kₒₙ). A 1:1 Langmuir binding model was used for kinetics analysis of Fabs.

Peptide-2 [5] = target: T1, Peptide-2; test: SPR ProteOn, mAb captured, peptide as analyte; range of n=2
Description: as §1, §2, §3

[6] = target: T4, PHF-tau (paired helical filament tau …); test: SPR ProteOn, PHF-tau capture-coupled via HT7, bivalent model; remark: listed apart in the source
Description: (§5) A subset of HFA-PT3 monoclonal antibodies was tested for binding to PHF-tau isolated from Alzheimer's disease brain. All interactions were studied at 25° C. using PBS pH 7.4, supplemented with 3 mM EDTA, and 0.005% Tween 20 as running or system buffer. HT7 (Pierce, catalog #MN1000), a mouse anti-tau antibody, was used as a positive control.
(§6) The interaction of anti-tau monoclonal antibodies with PHF-tau was analyzed by ProteOn using a biosensor surface prepared by capture-coupling PHF-tau using HT7 as the capture reagent. PHF-tau was prepared by 2-times centrifugation at 5000×g at 5° C. for 10 min; the supernatant from the second centrifugation was then diluted 1/40 in running buffer. To prepare the chip, HT7 was covalently immobilized to the surface of a GLC (ProteOn) sensor chip using the manufacturer's instructions for amine-coupling chemistry (˜5000 response units (RU)). The coupling buffer was 10 mM sodium acetate, pH 4.5. After HT7 immobilization, PHF-tau was injected and captured (˜300 RU) by HT7. After capture, PHF-tau was covalently immobilized to the sensor chip by activation of the chip using the manufacturer's instructions for amine-coupling chemistry. Remaining reactive sites were blocked by the injection of ethanolamine. After preparation and stabilization of the PHF-tau-modified surface and reference surface (containing no antigen), the anti-tau antibodies were diluted in the running buffer and injected in solution (0.12-75 nM in 5-fold dilutions). The association was monitored for 3 minutes (120 μL injected at 40 μL/min). The dissociation was monitored for 15 minutes. Regeneration of the sensor surface was performed using 10 mM Gly pH 2.0. The data for monoclonal antibodies were fit using a bivalent binding model where the apparent affinity (KD) was reported as the ratio of koff/kₒₙ. A Langmuir 1:1 binding model was used for kinetics analysis of Fabs.

Peptide-2 [7] = target: T1, Peptide-2; test: SPR ProteOn, mAb captured, peptide as analyte
Description: as §1, §2, §3

[8] = target: T3, tau phospho-peptide of the direct ELISA …; test: direct ELISA on plate-coated tau phospho-peptide (10 ng/mL), detection with HRPO-labelled anti-Fab antibody
Description: as §4

Peptide-2 [9] = target: T1, Peptide-2; test: SPR ProteOn, peptide captured, Fab as analyte; range of n=2; upper end of n=2 range
Description: as §1
(§7) Fab/peptide binding. Biotinylated peptide was captured on a neutravidin-coated NLC biosensor chip pre-conditioned with PBST, and Fab was flowed over the surface to measure kinetic parameters. Approximately 5-10 RU of peptide was captured on the chip surface by diluting peptide to 10 ng/mL in PBST and injecting over the flow channels at 30 μL/min for 100 s. Serial dilutions of PT3 Fab (1.1 nM to 90 nM) were injected at 60 μL/min for 3 minutes (association phase), followed by 300 s of buffer only (dissociation phase).
as §3

[10] = target: T4, PHF-tau (paired helical filament tau …); test: SPR ProteOn, PHF-tau capture-coupled via HT7, 1:1 model
Description: as §5, §6

[11] = target: T4, PHF-tau (paired helical filament tau …); test: SPR ProteOn, PHF-tau on chip
Peptide-2 [12] = target: T1, Peptide-2; test: SPR ProteOn, peptide captured, Fab as analyte
Description: as §1, §7, §3

Peptide-2 [13] = target: T1, Peptide-2; test: SPR ProteOn, peptide captured, Fab as analyte; range of n=2
Description: as §1, §7, §3

Peptide-8 [14] = target: T2, Peptide-8; test: SPR ProteOn, mAb captured by anti-human Fc, peptide as analyte; poor data fit
Description: as §1, §2, §3

[15] = target: T4, PHF-tau (paired helical filament tau …); test: SPR ProteOn, PHF-tau

T1 sequence (peptide, as listed by the source): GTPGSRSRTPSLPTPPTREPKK
T4 sequence (P10636 other isoform, or with tags, fused parts or gaps limits assumed): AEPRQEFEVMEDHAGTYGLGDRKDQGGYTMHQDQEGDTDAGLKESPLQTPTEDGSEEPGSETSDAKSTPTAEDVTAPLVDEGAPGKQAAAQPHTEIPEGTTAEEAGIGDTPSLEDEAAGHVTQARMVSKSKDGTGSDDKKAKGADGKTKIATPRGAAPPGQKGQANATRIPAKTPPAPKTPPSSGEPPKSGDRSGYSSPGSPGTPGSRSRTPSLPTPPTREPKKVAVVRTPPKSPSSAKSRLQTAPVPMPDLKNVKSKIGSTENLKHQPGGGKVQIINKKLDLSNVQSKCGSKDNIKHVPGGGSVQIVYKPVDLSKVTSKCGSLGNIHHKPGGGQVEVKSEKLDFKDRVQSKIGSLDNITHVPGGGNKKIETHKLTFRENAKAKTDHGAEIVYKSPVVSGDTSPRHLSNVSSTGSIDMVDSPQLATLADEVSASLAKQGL

B1: B296 (antibody, human IgG1, kappa, V domains shown)
VH: QVQLVESGGGVVQPGRSLRLSCAASGFTFSSYAMSWVRQAPGKGLEWVASISKGGNTYYADSVKGRFTISRDNSKNTLYLQMNSLRAEDTAVYYCARGWGDYGWFAYWGQVTLVTVSS
VL: DIQMTQSPSSLSASVGDRVTITCKASQDINRYLNWFQQKPGKAPKSLIYRANRLLDGVPSRFSGSGSGTDFTLTISSLQPEDFATYYCLQYDEFPLTFGQGTKLEIKR
notes: Humanized PT3, human IgG1/kappa; also called VH92/VL77; HFA-PT3
- koff (Peptide-2 [1]): 0.000863 s⁻¹
- kon (Peptide-2 [1]): 6.9e+06 M⁻¹ s⁻¹
- Kd (Peptide-8 [2]): 26.8 nM
- koff (Peptide-8 [2]): 0.023 s⁻¹
- kon (Peptide-8 [2]): 856000 M⁻¹ s⁻¹
- EC50 [3]: 0.433 nM
- Kd [4]: 0.0062 nM
- koff [4]: 1.17e-05 s⁻¹
- kon [4]: 1.89e+06 M⁻¹ s⁻¹
- Kd (Peptide-2 [5]): 0.125 to 0.255 nM
- koff (Peptide-2 [5]): 0.000788 s⁻¹
- kon (Peptide-2 [5]): 3.1e+06 M⁻¹ s⁻¹
- Kd [6]: 0.027 nM
- koff [6]: 2.93e-05 s⁻¹
- kon [6]: 1.07e+06 M⁻¹ s⁻¹
- Kd (Peptide-2 [7]): 0.19 nM
- koff (Peptide-2 [7]): 0.000826 s⁻¹
- kon (Peptide-2 [7]): 5e+06 M⁻¹ s⁻¹
- EC50 (read off the curve) [8]: ~0.3 nM

B2: B326 (Fab of B252) (Fab, V domains shown)
VH: B1 VH with V11L, Q13K, R16G, V37I, A49S, S74A, T77S
VL: DIVMTQTPLSSPVTLGQPASISCKASQDINRYLNWLQQRPGQPPRLLIYRANRLLDGVPDRFSGSGAGTDFTLKISRVEAEDVGVYYCLQYDEFPLTFGQGTKLEIK
notes: also called B252 Fab
- koff (Peptide-2 [9]): 0.000353 s⁻¹
- kon (Peptide-2 [9]): 912000 M⁻¹ s⁻¹
- Kd [10]: 0.224 nM
- koff [10]: 0.00023 s⁻¹
- kon [10]: 1.02e+06 M⁻¹ s⁻¹
- fold weaker KD than the mouse PT3 parent Fab B187 [11]: 3.3 fold
- Kd (Peptide-2 [12]): 0.493 nM
- koff (Peptide-2 [12]): 0.000329 s⁻¹
- kon (Peptide-2 [12]): 710000 M⁻¹ s⁻¹
- Kd (Peptide-2 [13]): 0.387 to 0.599 nM
- koff (Peptide-2 [13]): 0.000304 s⁻¹
- kon (Peptide-2 [13]): 507000 M⁻¹ s⁻¹

B4: B280 (antibody, human IgG1, V domains shown)
VH: B1 VH with Q1E, V5L, V11L, R16G, A49S, R97K
VL: B2 VL
notes: Humanized (HFA) PT3 variant, human IgG1/kappa; also called VH91/VL80
- koff (Peptide-2 [1]): 0.00301 s⁻¹
- kon (Peptide-2 [1]): 7.2e+06 M⁻¹ s⁻¹
- Kd (Peptide-2 [5]): 0.418 to 1.12 nM
- koff (Peptide-2 [5]): 0.00246 s⁻¹
- kon (Peptide-2 [5]): 2.21e+06 M⁻¹ s⁻¹
- Kd [6]: 0.055 nM
- koff [6]: 5.63e-05 s⁻¹
- kon [6]: 1.02e+06 M⁻¹ s⁻¹
- Kd (Peptide-2 [7]): 0.769 nM
- koff (Peptide-2 [7]): 0.00274 s⁻¹
- kon (Peptide-2 [7]): 4.71e+06 M⁻¹ s⁻¹
- Kd (Peptide-8 [14]): 34.7 nM
- koff (Peptide-8 [14]): 0.00757 s⁻¹
- kon (Peptide-8 [14]): 218000 M⁻¹ s⁻¹

Now from value to binder:

- EC50 [3]: 0.0917 nM
- Kd [4]: 0.002 nM
- koff [4]: 1.27e-05 s⁻¹
- kon [4]: 6.45e+06 M⁻¹ s⁻¹
- fold improvement in on-rate compared to the parent antibody (B296) [11]: 3 fold
- EC50 (read off the curve) [8]: ~0.06 nM
B3: B809 (antibody, human IgG1, kappa, V domains shown)
VH: B1 VH with S30T, S52T, D101I
VL: B1 VL
notes: also called PT1B809

- Kd [15]: 0.322 nM
- koff [15]: 6.47e-05 s⁻¹
- kon [15]: 201000 M⁻¹ s⁻¹
B5: PT1 mAb (hyb) (antibody, V domains shown)
VH: QVQLQQSGTELMKPGASVKISCKATGYTFSSSWMGWVKQRPGHGLEWIGDILPGSGGTNYNERFKGKASFTAETSSNTAYMQLSSLTSEDSAVYYCVRSYYDYDRFANWGQGTLVTVSA
VL: DIVMTQAAPSVPVTPGESVSISCRSSESLLHSNGNTYLYWFLQRPGQSPQLLIYRMSNLASGVPDRFSGSGSGTAFTLRISRVEAEDVGVYYCMQYLEYPLTFGAGTKLELK
